In the supplement of paper PMC9876800:

System: peptide library, one residue held at a place counted from the S/T acceptor
Test: relative phosphorylation of the sub-library (ratio to the mean residue at this position); higher = residue favoured
Details: human
Summary of the method: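 In 384-well plates, purified recombinant kinases (human or orthologue constructs) were incubated for 90 min under kinase-specific conditions with 50 μM biotinylated degenerate peptide sub-libraries and 50 μM ATP spiked with γ-32P-ATP. Each sub-library fixed a single residue at one position around a central Ser/Thr. Relative sub-library phosphorylation, measured by phosphorimaging and densitometry of streptavidin membrane spots, is given as a ratio to the mean residue at that position.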

CDK3, construct: Full length, sequence (Q00526 whole entry, looked up): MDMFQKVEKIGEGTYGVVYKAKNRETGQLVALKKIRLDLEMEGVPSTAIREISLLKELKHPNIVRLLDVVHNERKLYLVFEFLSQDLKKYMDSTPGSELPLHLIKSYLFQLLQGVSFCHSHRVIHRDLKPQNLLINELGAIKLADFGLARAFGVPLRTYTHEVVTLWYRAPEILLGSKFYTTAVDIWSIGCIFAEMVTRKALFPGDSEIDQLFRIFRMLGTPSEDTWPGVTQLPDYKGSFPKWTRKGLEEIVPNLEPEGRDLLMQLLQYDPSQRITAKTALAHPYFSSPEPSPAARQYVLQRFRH
CDK13, construct: aa694-1039, sequence (Q14004 694-1039, looked up): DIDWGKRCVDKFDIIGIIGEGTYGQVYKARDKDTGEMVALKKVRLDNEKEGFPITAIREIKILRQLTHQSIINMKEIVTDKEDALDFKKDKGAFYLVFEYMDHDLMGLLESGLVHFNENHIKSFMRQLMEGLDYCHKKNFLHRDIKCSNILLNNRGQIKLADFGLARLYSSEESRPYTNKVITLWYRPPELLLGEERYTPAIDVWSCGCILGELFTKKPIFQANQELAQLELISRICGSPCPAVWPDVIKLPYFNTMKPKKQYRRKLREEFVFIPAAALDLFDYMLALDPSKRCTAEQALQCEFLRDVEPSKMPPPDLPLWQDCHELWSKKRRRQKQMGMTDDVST
PAK5, construct: aa425-end, sequence (Q9P286 425-719, looked up): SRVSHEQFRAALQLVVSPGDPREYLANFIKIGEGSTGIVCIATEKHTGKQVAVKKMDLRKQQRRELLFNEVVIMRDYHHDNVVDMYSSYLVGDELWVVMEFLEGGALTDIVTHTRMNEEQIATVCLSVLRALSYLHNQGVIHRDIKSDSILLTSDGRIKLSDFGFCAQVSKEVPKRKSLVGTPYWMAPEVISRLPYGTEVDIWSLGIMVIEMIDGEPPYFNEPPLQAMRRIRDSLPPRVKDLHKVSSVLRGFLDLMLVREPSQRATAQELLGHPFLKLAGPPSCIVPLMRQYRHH
DCLK1, construct: aa351-689, sequence (O15075 351-689, looked up): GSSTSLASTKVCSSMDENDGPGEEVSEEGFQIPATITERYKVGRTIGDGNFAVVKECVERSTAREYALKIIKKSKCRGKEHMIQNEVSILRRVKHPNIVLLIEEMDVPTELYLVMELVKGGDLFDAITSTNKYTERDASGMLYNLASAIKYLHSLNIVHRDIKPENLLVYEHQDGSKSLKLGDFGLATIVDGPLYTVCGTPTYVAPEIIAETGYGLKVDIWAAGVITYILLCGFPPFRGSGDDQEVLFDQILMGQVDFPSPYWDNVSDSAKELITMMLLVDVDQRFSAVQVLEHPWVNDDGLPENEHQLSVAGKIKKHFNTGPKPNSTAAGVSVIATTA

DCLK1, construct: aa351-689 (from UniProt O15075)
relative phosphorylation
Details | at +1 | at +2 | at +3 | at +4 | at -1 | at -2 | at -3 | at -4 | at -5
A fixed | 0.741 | 1.04 | 0.876 | 0.928 | 0.957 | 1.35 | 0.773 | 1.13 | 1.09
D fixed | 0.495 | 0.579 | 0.771 | 0.814 | 0.62 | 0.651 | 0.307 | 0.553 | 0.468
E fixed | 0.508 | 0.36 | 0.817 | 0.761 | 0.362 | 1.5 | 0.386 | 0.912 | 0.452
F fixed | 2.44 | 1.04 | 0.991 | 1.34 | 0.427 | 0.582 | 0.281 | 0.617 | 1.08
G fixed | 0.765 | 0.962 | 1.25 | 1.11 | 1.72 | 1.45 | 0.704 | 1.09 | 1.07
H fixed | 1.01 | 1.39 | 1.38 | 0.944 | 1.33 | 1.12 | 0.979 | 1.15 | 1.01
I fixed | 0.485 | 1.08 | 0.571 | 0.972 | 0.277 | 0.315 | 0.133 | 0.462 | 0.759
K fixed | 1.1 | 0.523 | 1.27 | 1.23 | 2.27 | 1.5 | 3.37 | 2.12 | 1.56
L fixed | 0.774 | 1.3 | 0.952 | 1.03 | 0.745 | 0.499 | 0.245 | 0.659 | 1.02
M fixed | 1.53 | 1.48 | 0.66 | 1.26 | 0.797 | 1.06 | 0.415 | 0.947 | 0.938
N fixed | 1.11 | 0.719 | 0.988 | 0.871 | 1.07 | 1.12 | 0.568 | 0.909 | 0.716
P fixed | 0.274 | 0.63 | 0.789 | 1.17 | 1.37 | 0.383 | 0.821 | 1.08 | 1.16
Q fixed | 1.13 | 0.626 | 1.16 | 0.925 | 0.958 | 1.75 | 0.771 | 1.04 | 0.907
R fixed | 1.22 | 0.52 | 1.46 | 1.05 | 2.01 | 1.78 | 6.04 | 1.92 | 1.68
V fixed | 0.705 | 1.23 | 0.79 | 0.889 | 0.529 | 0.464 | 0.244 | 0.665 | 0.886
W fixed | 1.34 | 1.59 | 1.32 | 0.929 | 0.528 | 0.685 | 0.475 | 0.876 | 1.36
Y fixed | 1.38 | 1.94 | 0.953 | 0.781 | 1.03 | 0.785 | 0.486 | 0.861 | 0.832
pThr fixed | 0.78 | 0.776 | 0.779 | 1.2 | 0.322 | 0.357 | 0.407 | 0.688 | 0.712
pTyr fixed | 1.01 | 2.9 | 0.913 | 0.688 | 0.585 | 0.497 | 0.391 | 0.683 | 0.813

CDK3, construct: Full length (from UniProt Q00526)
relative phosphorylation
Details | at +1 | at +2 | at +3 | at +4 | at -1 | at -2 | at -3 | at -4 | at -5
A fixed | 0.28 | 1.2 | 0.418 | 1.14 | 1.12 | 1.17 | 1.14 | 1.23 | 1.11
D fixed | 0.17 | 0.658 | 0.277 | 0.882 | 0.844 | 0.837 | 0.997 | 1.07 | 1.31
E fixed | 0.172 | 0.626 | 0.25 | 0.783 | 0.718 | 0.938 | 0.839 | 1.29 | 1.06
F fixed | 0.14 | 0.857 | 0.261 | 0.778 | 0.703 | 0.855 | 0.746 | 0.8 | 0.944
G fixed | 0.912 | 0.851 | 0.612 | 1.43 | 1.72 | 1.28 | 1.83 | 1.49 | 1.37
H fixed | 0.177 | 1.06 | 0.699 | 1.06 | 0.778 | 0.981 | 0.984 | 0.966 | 0.993
I fixed | 0.156 | 0.775 | 0.261 | 0.697 | 0.343 | 0.691 | 0.618 | 0.589 | 0.656
K fixed | 0.214 | 2 | 9.66 | 1.99 | 1.58 | 0.753 | 0.978 | 1.1 | 1.06
L fixed | 0.156 | 0.891 | 0.266 | 0.736 | 0.741 | 0.957 | 0.777 | 0.709 | 0.629
M fixed | 0.167 | 0.98 | 0.284 | 0.962 | 0.969 | 0.889 | 0.766 | 0.957 | 0.695
N fixed | 0.193 | 1.05 | 0.405 | 0.988 | 1.1 | 0.909 | 1.06 | 0.938 | 0.887
P fixed | 13.3 | 0.682 | 0.644 | 1.04 | 1.87 | 2.78 | 2.04 | 1.54 | 1.51
Q fixed | 0.212 | 1.29 | 0.401 | 0.933 | 1.17 | 0.825 | 0.943 | 0.836 | 0.915
R fixed | 0.2 | 1.9 | 1.69 | 1.1 | 1.48 | 0.835 | 1 | 1.01 | 1.12
V fixed | 0.216 | 0.851 | 0.302 | 0.682 | 0.453 | 0.688 | 0.654 | 0.602 | 0.832
W fixed | 0.155 | 0.653 | 0.277 | 1.05 | 0.613 | 0.867 | 0.807 | 0.969 | 1.01
Y fixed | 0.142 | 0.664 | 0.288 | 0.741 | 0.793 | 0.744 | 0.814 | 0.891 | 0.895
pThr fixed | 0.523 | 0.933 | 0.86 | 0.685 | 0.434 | 0.731 | 0.886 | 1 | 1.24
pTyr fixed | 0.633 | 0.538 | 0.927 | 0.718 | 0.48 | 0.698 | 0.853 | 0.982 | 0.947

PAK5, construct: aa425-end (from UniProt Q9P286)
relative phosphorylation
Details | at +1 | at +2 | at +3 | at +4 | at -1 | at -2 | at -3 | at -4 | at -5
A fixed | 0.523 | 3.81 | 0.935 | 0.868 | 0.794 | 0.298 | 0.638 | 1.06 | 1.07
D fixed | 0.142 | 0.456 | 0.657 | 0.741 | 0.332 | 0.0993 | 0.253 | 0.673 | 0.561
E fixed | 0.161 | 0.217 | 0.94 | 0.704 | 0.254 | 0.0919 | 0.269 | 0.731 | 0.544
F fixed | 1.37 | 0.928 | 1.42 | 0.877 | 1.06 | 0.519 | 0.574 | 0.881 | 0.948
G fixed | 0.353 | 0.908 | 1.17 | 1.34 | 0.645 | 0.224 | 0.814 | 1.22 | 1.14
H fixed | 0.93 | 0.94 | 1.08 | 0.987 | 1.36 | 1.1 | 1.02 | 1.16 | 1.18
I fixed | 1.82 | 0.958 | 0.944 | 0.834 | 0.538 | 0.325 | 0.439 | 0.591 | 0.78
K fixed | 0.715 | 0.343 | 0.634 | 0.97 | 1.72 | 0.815 | 3.3 | 1.53 | 1.74
L fixed | 1.48 | 0.79 | 1.19 | 0.826 | 1.22 | 0.27 | 0.432 | 0.804 | 0.794
M fixed | 1.83 | 0.681 | 1.07 | 0.876 | 1.28 | 0.347 | 0.557 | 0.932 | 0.835
N fixed | 0.402 | 0.924 | 0.702 | 1.01 | 0.942 | 0.26 | 0.744 | 0.959 | 0.986
P fixed | 0.18 | 0.846 | 1.08 | 1.74 | 0.278 | 0.576 | 0.567 | 0.867 | 0.899
Q fixed | 0.672 | 0.742 | 0.842 | 0.977 | 0.991 | 0.455 | 0.895 | 1 | 0.836
R fixed | 0.911 | 0.444 | 0.861 | 1.33 | 2.54 | 9.1 | 4.48 | 1.98 | 1.79
V fixed | 1.55 | 1.87 | 0.962 | 0.798 | 0.531 | 0.333 | 0.376 | 0.586 | 0.791
W fixed | 2.21 | 1.02 | 1.32 | 1.21 | 1.14 | 0.428 | 0.898 | 1.08 | 1.12
Y fixed | 1.74 | 1.12 | 1.21 | 0.917 | 1.38 | 1.76 | 0.745 | 0.935 | 0.987
pThr fixed | 0.367 | 0.442 | 0.647 | 0.925 | 0.214 | 0.201 | 0.373 | 0.693 | 0.735
pTyr fixed | 0.581 | 0.527 | 0.956 | 0.732 | 0.268 | 0.216 | 0.45 | 0.731 | 0.729

CDK13, construct: aa694-1039 (from UniProt Q14004)
relative phosphorylation
Details | at +1 | at +2 | at +3 | at +4 | at -1 | at -2 | at -3 | at -4 | at -5
A fixed | 0.344 | 0.946 | 0.818 | 0.867 | 1.13 | 1.18 | 1.03 | 1.07 | 1.13
D fixed | 0.22 | 0.631 | 0.449 | 1.07 | 0.485 | 0.477 | 0.742 | 0.927 | 0.951
E fixed | 0.222 | 0.569 | 0.42 | 0.973 | 0.492 | 0.515 | 0.76 | 0.983 | 0.817
F fixed | 0.319 | 1.03 | 0.579 | 0.816 | 0.876 | 0.712 | 0.85 | 1.17 | 1.23
G fixed | 0.908 | 1.27 | 0.797 | 1.33 | 1.45 | 1.77 | 2.11 | 1.16 | 0.982
H fixed | 0.301 | 1.17 | 1.71 | 1.44 | 0.893 | 0.831 | 0.889 | 1.02 | 1.1
I fixed | 0.293 | 0.835 | 0.822 | 0.746 | 0.382 | 0.933 | 0.995 | 0.868 | 0.933
K fixed | 0.307 | 1.31 | 0.993 | 0.893 | 1.12 | 0.542 | 0.581 | 0.846 | 0.837
L fixed | 0.348 | 0.845 | 0.558 | 0.743 | 0.845 | 1.03 | 0.922 | 0.953 | 0.923
M fixed | 0.336 | 1.11 | 0.506 | 0.824 | 1.64 | 1.31 | 0.965 | 1.01 | 0.855
N fixed | 0.305 | 1.02 | 0.739 | 1.01 | 0.968 | 0.685 | 0.696 | 0.889 | 0.784
P fixed | 11.6 | 0.82 | 1.41 | 0.98 | 1.02 | 1.71 | 1.44 | 1.15 | 1.17
Q fixed | 0.287 | 0.8 | 0.764 | 0.903 | 1.18 | 0.736 | 0.672 | 0.753 | 0.933
R fixed | 0.315 | 1.7 | 4.1 | 0.956 | 1.68 | 1.16 | 1.2 | 0.861 | 0.898
V fixed | 0.315 | 0.812 | 0.717 | 0.779 | 0.511 | 0.942 | 0.877 | 0.825 | 0.929
W fixed | 0.306 | 0.937 | 0.82 | 1.59 | 1.23 | 1.43 | 1.07 | 1.4 | 1.24
Y fixed | 0.306 | 1.2 | 0.801 | 1.09 | 1.09 | 1.03 | 1.2 | 1.11 | 1.27
pThr fixed | 0.386 | 0.581 | 0.553 | 1.13 | 0.349 | 0.479 | 0.922 | 0.831 | 1.02
pTyr fixed | 0.405 | 0.576 | 0.702 | 1.27 | 1.16 | 0.698 | 0.88 | 0.961 | 0.865
